Reference: article PMC4800795

T1: endogenous IRF3 of HEK293T cells (human (endogenous in HEK293T)), Q14653
T1 chain: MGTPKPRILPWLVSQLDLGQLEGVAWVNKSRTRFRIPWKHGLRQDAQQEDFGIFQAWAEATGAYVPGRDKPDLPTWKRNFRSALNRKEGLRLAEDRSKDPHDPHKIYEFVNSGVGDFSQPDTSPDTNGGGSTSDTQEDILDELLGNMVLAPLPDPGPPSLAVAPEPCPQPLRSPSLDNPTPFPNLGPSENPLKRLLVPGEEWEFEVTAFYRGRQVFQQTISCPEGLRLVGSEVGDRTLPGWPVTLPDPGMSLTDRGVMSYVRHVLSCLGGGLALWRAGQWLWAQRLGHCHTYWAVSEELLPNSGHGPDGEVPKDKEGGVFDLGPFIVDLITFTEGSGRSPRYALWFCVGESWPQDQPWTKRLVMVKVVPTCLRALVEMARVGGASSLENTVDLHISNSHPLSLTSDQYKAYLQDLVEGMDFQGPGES

T2: GFP-tagged wild-type IRF3 (IRF3-WT-GFP), in HEK293T cells, Q14653
T2 chain: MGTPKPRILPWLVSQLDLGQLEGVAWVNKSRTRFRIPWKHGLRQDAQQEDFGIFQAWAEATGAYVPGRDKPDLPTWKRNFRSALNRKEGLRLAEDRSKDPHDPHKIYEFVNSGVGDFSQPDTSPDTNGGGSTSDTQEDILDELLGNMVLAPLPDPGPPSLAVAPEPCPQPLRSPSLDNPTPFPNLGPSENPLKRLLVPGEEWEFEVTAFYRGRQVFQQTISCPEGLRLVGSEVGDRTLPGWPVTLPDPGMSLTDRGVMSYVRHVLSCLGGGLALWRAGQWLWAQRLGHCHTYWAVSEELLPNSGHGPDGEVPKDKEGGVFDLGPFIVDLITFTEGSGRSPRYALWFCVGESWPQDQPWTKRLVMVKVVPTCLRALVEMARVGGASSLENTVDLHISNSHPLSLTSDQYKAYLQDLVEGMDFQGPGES


Assays:
[1] = target: T1, endogenous IRF3 of HEK293T cells (human …); assay: native gel or EMSA; native PAGE (deoxycholate in the cathode buffer, on ice) of HEK293T lysates, Western blot; cells stimulated with poly(I·C) 10 μg/ml for 12 h, with or without Flag-FAF1; conditions: remark: other sources report otherwise
[2] = target: T2, GFP-tagged wild-type IRF3 …; assay: as above; conditions: remark: other sources report otherwise

stoichiometry N [1] | stoichiometry N [2] | Binder
2 | – | endogenous IRF3 of HEK293T cells, Q14653 1-427 (natural protein) MGTPKPRILPWLVSQLDLGQLEGVAWVNKSRTRFRIPWKHGLRQDAQQEDFGIFQAWAEATGAYVPGRDKPDLPTWKRNFRSALNRKEGLRLAEDRSKDPHDPHKIYEFVNSGVGDFSQPDTSPDTNGGGSTSDTQEDILDELLGNMVLAPLPDPGPPSLAVAPEPCPQPLRSPSLDNPTPFPNLGPSENPLKRLLVPGEEWEFEVTAFYRGRQVFQQTISCPEGLRLVGSEVGDRTLPGWPVTLPDPGMSLTDRGVMSYVRHVLSCLGGGLALWRAGQWLWAQRLGHCHTYWAVSEELLPNSGHGPDGEVPKDKEGGVFDLGPFIVDLITFTEGSGRSPRYALWFCVGESWPQDQPWTKRLVMVKVVPTCLRALVEMARVGGASSLENTVDLHISNSHPLSLTSDQYKAYLQDLVEGMDFQGPGES
– | 2 | GFP-tagged wild-type IRF3 (IRF3-WT-GFP), in HEK293T cells, Q14653 1-427 (natural protein) MGTPKPRILPWLVSQLDLGQLEGVAWVNKSRTRFRIPWKHGLRQDAQQEDFGIFQAWAEATGAYVPGRDKPDLPTWKRNFRSALNRKEGLRLAEDRSKDPHDPHKIYEFVNSGVGDFSQPDTSPDTNGGGSTSDTQEDILDELLGNMVLAPLPDPGPPSLAVAPEPCPQPLRSPSLDNPTPFPNLGPSENPLKRLLVPGEEWEFEVTAFYRGRQVFQQTISCPEGLRLVGSEVGDRTLPGWPVTLPDPGMSLTDRGVMSYVRHVLSCLGGGLALWRAGQWLWAQRLGHCHTYWAVSEELLPNSGHGPDGEVPKDKEGGVFDLGPFIVDLITFTEGSGRSPRYALWFCVGESWPQDQPWTKRLVMVKVVPTCLRALVEMARVGGASSLENTVDLHISNSHPLSLTSDQYKAYLQDLVEGMDFQGPGES
